This assay has as its target T1, recombinant CD45RO-Fc protein (Catalog # 10642-CD, R&D systems) (UniProt P08575-4 26-416).
T1 sequence (looked up): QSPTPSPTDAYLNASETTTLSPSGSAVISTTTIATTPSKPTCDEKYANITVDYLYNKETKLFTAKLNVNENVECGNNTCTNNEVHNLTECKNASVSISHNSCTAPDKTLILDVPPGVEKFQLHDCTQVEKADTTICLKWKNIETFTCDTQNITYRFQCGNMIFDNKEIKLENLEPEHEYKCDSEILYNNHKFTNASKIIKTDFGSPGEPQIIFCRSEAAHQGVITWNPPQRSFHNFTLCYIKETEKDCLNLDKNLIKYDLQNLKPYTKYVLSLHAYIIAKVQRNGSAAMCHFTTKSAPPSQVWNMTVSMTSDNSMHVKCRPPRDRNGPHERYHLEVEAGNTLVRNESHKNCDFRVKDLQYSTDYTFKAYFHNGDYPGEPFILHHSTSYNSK
In words: MST.

B1: BTN2A2-His tag protein (without Fc tag) (domain or fragment, human, UniProt Q8WVV5 33-237, looked up)
chain: QFTVVGPANPILAMVGENTTLRCHLSPEKNAEDMEVRWFRSQFSPAVFVYKGGRERTEEQMEEYRGRITFVSKDINRGSVALVIHNVTAQENGIYRCYFQEGRSYDEAILRLVVAGLGSKPLIEIKAQEDGSIWLECISGGWYPEPLTVWRDPYGEVVPALKEVSIADADGLFMVTTAVIIRDKYVRNVSCSVNNTLLGQEKETV
modifications: fluorescently labeled by covalent labeling (Monolith protein labeling kit RED-NHS 2nd generation, amine reactive)
For B1, the Kd (in general, the constant that tells how readily two partners part at equilibrium) came to 63.5 nM.

The values are drawn from doi:10.1101/2024.11.12.623303 (bioRxiv, 2024).
